Molecular target: T1, Recombinant yeast Rnr1 protein (large subunit of ribonucleotide reductase) (yeast (Saccharomyces cerevisiae), UniProt P21524 1-888)
T1 construct: It is in monomer/dimer/tetramer equilibrium depending on dTTP; also called yeast R1 protein
T1 sequence (looked up): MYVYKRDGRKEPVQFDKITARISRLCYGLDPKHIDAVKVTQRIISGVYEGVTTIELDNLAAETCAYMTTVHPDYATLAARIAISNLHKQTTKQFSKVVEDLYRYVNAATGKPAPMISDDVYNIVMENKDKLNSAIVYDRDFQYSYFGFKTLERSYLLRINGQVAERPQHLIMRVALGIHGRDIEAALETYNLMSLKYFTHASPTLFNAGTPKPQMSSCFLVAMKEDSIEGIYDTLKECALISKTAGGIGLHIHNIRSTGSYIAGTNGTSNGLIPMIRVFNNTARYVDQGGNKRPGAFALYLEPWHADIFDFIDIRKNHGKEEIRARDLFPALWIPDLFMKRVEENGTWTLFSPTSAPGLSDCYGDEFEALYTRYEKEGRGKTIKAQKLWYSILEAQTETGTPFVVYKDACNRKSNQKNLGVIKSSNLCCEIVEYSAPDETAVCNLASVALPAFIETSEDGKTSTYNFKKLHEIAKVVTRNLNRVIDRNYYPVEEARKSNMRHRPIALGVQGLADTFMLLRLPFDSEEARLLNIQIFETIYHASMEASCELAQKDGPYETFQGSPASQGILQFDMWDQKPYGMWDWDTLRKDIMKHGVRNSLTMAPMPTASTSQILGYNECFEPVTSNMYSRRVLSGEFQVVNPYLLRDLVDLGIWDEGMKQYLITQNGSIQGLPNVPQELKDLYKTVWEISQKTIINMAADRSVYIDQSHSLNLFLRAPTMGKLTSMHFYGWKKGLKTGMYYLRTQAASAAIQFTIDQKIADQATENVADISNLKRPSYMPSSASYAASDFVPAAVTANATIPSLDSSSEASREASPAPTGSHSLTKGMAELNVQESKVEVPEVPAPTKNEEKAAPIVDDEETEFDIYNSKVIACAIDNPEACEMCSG
Assay: BIAcore SPR, calculated from rate constants; calculated from the rate constants, not the equilibrium fit
Description: BIAcore biosensor analysis. The interaction between Sml1p and either yeast Rnr1p or mouse R1 protein was studied by biosensor analysis using the BIAcore method (Biacore AB). The Sml1 protein was prepared in 10 mM sodium acetate, pH 5.2, at a concentration of 0.44 mg/ml; it was then immobilized on the dextran layer of the sensor chip as described previously for the mouse R2 protein (17). The ligand proteins were equilibrated with running buffer (10 mM Hepes-KOH, pH 7.4, 200 mM potassium acetate, 1 mM EDTA, 5 mM magnesium acetate and 0.05% Surfactant P20 (BIAcore). The interactions were studied at a constant temperature of 22° C. and a constant flow of 5 μl/min. Kinetics for the interaction of Sml1p with yeast Rnr1p was determined by allowing the immobilized Sml1p to interact with increasing concentrations of Rnr1p (18). The resonance unit (RU) is proportional to the mass, and 1 RU corresponds to a surface concentration of 1 pg of protein/mm² of the 100 nm thick dextran layer (19).
In control experiments, where the same series of Rnr1p solutions passed a sensor chip without immobilized Sml1p, a "bulk effect" gave a response of only about 60 RU. […] Calculating the equilibrium dissociation constant from these rate constants gave a K_0 of about 0.25 µM, which is close to the directly determined K_0.

B1: Recombinant yeast Sml1 protein (other)
chain: MQNSQDYFYAQNRCQQQQAPSTLRTVTMAEFRRVPLPPMAEVPMLSTQNSMGSSASASASSLEMWEKDLEERLNSIDHDMNNNKFGSGELKSMFNQGKVEEMDF
notes: Immobilized on the BIAcore chip in the biosensor experiments; also called YML058W product
Kd: ~250 nM

Reference: US7125658B2, “Small protein that interacts with a ribonucleotide reductase subunit and uses thereof” (The Trustees of Columbia University in the City of New York, priority 1998, dated 2006)
